From US20170267762A1 (APOLLOMICS, published 2017)

Experiments:
[1] = molecular target: T1, human PD-1 (construct not stated) (human, UniProt Q15116 25-167, limits assumed); experiment: SPR (Biacore 3000), antibody captured on the chip, PD-1 as analyte, 1:1 Langmuir fit
T1 construct: also called PD-1 analyte
Procedure: To characterize the binding characteristics of the humanized antibodies, the binding kinetics between PD-1 and PD-1 antibodies were measured by Biacore3000 and recorded with a data collection rate of 1 Hz. The polyclonal rabbit anti-mouse IgG (GE, BR-1008-38) was diluted with 10 mM pH 5.0 sodium acetate and immobilized onto reference and experiment flow cells of a CMS biosensor chip to around 15000 RU using an amine coupling kit (GE, BR10050). In the beginning of each cycle, diluted test antibody (1.5 μg/mL) was injected over experiment flow cell for 1 minute to be captured. PD-1 analyte series were prepared by diluting the stocks with running buffer to 100nM followed by 2× serial dilution in the same buffer down to 0.78nM. Analytes were injected in series over the reference and experiment flow cells for 3 minutes at a flow rate of 30 μL/minute. Then running buffer (PBS with 0.05% P20) was allowed to flow over for 10 minutes at a flow rate of 30 μL/minute. At the end of each cycle, the biosensor surface was regenerated with 3 minutes injection of 10 mM pH1.7 Glycine-HC1 buffer at a flow rate of 10 μL/minute. For each analyte sample injection (i.e. each cycle), binding responses obtained from the experimental biosensor surface were double referenced by subtracting simultaneously recorded responses from the reference surface followed by additional subtraction of responses from a single referenced running buffer sample. The association and dissociation rate constants (ka and kd) were determined simultaneously by fitting double-referenced sensorgrams of the entire titration series to Langmuir model (1:1) using Biaevaluation 4.0 software. The dissociation constant, KD, was calculated from the determined rate constants by the relation KD =kd/ka. […] The Biocore binding curves are shown in FIGS. 10 and 17A, top panel, and the quantified binding data are summarized in FIGS. 10 and 17A, bottom panel.

[2] = molecular target: T2, human PD-1 on cells (293T cells transfected with human PD-1) (human, UniProt Q15116 25-288); experiment: FACS ligand blockage: PD-L1 binding to 293T-PD1 cells
T2 construct: whole, on cells; Also used as the target for the functional rows, where PD-1 stands on human T cells

[3] = molecular target: T2, human PD-1 on cells (293T cells …); experiment: FACS binding to 293T cells expressing human PD-1, MFI
Procedure: The cells were incubated with the indicated antibody (20 ug/ml with the dilution of ⅕) at 4° C. for 1 h. Cells were washed three times with FACS buffer. A secondary antibody (PE Goat anti-mouse: 1:200; PE mouse anti-human: 1:10) was added to the cells at 100 ul/well, and incubated at 4° C. for 40min. Cells were washed three times with FACS buffer and analyzed by FACS Array.

[4] = molecular target: T3, human PD-1 extracellular domain fused with human Fc tag (hPD-1-hFc) (human); experiment: ELISA binding to plate-bound PD-1, OD450 (methods similar to Example 2: plate coated with PD1-hFc)
T3 construct: also called human PD-1-hFc
Procedure: ELISA binding analysis was conducted based on human PD-1-hFc Protein. 96-well plates (Costar, Cat No:9018) were coated with 100 μL of 2 μg/ml PD1-hFc (CrownBio) in coating buffer (PBS, Hyclone, Cat No:SH30256.01B) overnight at 4° C. The wells were aspirated and non-specific binding sites were blocked by adding 200 μL of blocking buffer with 1% (w/v) of bovine serum albumin (BSA, Roche, Cat No: 738328) and incubating for 1 hour at 37° C. After the plates are washed three times with wash buffer (PBS with 0.05%(v/v) Tween20 (Sigma, Cat No:P1379), 100 μL/well of a suitable dilutions of hybridoma supernatant in blocking buffer were added and incubated at room temperature for 1 hour. The plates were washed and incubated with 100 μL/well of Goat anti-Mouse IgG (H+L) (Thermo, Cat No: 31432) in blocking buffer for 60 min. After the plates were washed, 100 μL/well of substrate solution (TMB(eBioscience, Cat No:00-4201-56) was added and the plates were incubated for 2min at room temperature. 100 μL/well of stop solution (2N H2SO4) was added to stop the reaction. The colorimetric signals were developed and read at 450 nm using a Auto Plate SpectraMax Plus (Supplier: Molecular Devices; Model: MNR0643; Software: SoftMax Pro v5.4).

[5] = molecular target: T2, human PD-1 on cells (293T cells …); experiment: FACS ligand blockage: biotin-labeled PD-L1 binding to 293T cells expressing human PD-1, MFI
Procedure: Various concentrations of the testing hybridoma antibodies were added to the cell suspension and incubated at 4° C. for 60 minutes in 96 well plates. […] Plates were washed 3 times, and mouse anti-biotin PE antibody (Biolgend, cat# 409004) was added. Flow cytometric analyses were performed using a FACS Array.

[6] = molecular target: T4, human PD-1 extracellular domain fused with mouse Fc (PD-1-mFc) (human, UniProt Q15116 25-170); experiment: ELISA ligand blockage: biotinylated PD-L1-mFc binding to plate-bound PD-1, OD450 (methods similar to Example 2: PD-1-mFc coated)
T4 construct: extracellular domain; not used because of the label; also called hPD-1-mFc; human PD-1-mouse Fc fusion protein
Procedure: PD-1-mFc antigen (CrownBio) was suspended in PBS (Hyclone,Cat No:SH30256.01B) buffer (2 ug/ml, 100 ul/ well) and coated on the 96 well plate (costar, Cat No.:9018) 4° C. overnight. Plates were washed 3 times using washing buffer: PBS+0.05% Tween 20(Sigma, Cat No.:P1379). 200 ul of blocking buffer (PBS+1%BSA(Roche, Cat No.:738328)), was added to each well, incubated at 37° C. for 1 hour, and washed 3 times. Various concentrations (suitable dilutions of hybridoma supernatant in PBS) of the anti-PD-1 Abs were added to the wells (100 μl/well) and incubated at 37° C. for 1 hour. […] Secondary antibody (Avidin HRP eBioscience cat No.:E07418-1632, 1:500, 100 ul/well) was added, incubated at 37 ° C. for 0.5 hour, and washed 3 times. TMB (Sigma, Cat No.: T0440, 100 ul/well) was added, and incubated for 3 min at RT. To stop the reaction, 2N H2SO4 (100 ul/well), was added. The colorimetric signals were developed and read at 450 nm using a Auto Plate SpectraMax Plus (Supplier: Molecular Devices; Model: MNR0643; Software: SoftMax Pro v5.4).

T1 sequence (Q15116 25-167 limits assumed): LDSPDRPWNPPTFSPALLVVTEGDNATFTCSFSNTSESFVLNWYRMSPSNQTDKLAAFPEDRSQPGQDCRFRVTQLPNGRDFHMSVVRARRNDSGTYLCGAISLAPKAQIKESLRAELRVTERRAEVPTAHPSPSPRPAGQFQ
T2 sequence (Q15116 25-288): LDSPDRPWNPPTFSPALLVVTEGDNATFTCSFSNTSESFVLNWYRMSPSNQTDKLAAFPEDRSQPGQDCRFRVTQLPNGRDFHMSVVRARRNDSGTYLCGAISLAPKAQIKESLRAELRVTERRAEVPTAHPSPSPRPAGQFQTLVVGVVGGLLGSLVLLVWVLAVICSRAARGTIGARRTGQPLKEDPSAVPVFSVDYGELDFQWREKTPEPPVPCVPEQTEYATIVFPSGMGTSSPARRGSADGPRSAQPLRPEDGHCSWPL
T3 sequence (chain, as listed by the source limits assumed): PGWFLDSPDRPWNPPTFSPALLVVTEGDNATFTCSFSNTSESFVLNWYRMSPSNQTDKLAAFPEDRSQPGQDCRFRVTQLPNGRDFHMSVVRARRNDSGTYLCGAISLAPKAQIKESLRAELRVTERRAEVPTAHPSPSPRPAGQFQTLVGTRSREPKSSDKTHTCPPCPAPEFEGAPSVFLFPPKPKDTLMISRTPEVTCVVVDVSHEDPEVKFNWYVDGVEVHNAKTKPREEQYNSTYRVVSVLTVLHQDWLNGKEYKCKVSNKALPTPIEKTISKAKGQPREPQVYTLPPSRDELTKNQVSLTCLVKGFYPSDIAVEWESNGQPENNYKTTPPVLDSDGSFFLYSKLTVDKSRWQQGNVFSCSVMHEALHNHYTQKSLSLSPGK
T4 sequence (Q15116 25-170): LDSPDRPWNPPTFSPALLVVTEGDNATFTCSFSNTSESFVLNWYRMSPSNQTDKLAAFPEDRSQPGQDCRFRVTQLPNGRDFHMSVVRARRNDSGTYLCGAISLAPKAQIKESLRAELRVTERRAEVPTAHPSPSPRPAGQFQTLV

Ka [1] [M⁻¹] | Kd [1] [pM] | koff [1] [s⁻¹] | kon [1] [M⁻¹ s⁻¹] | IC50 [2] [µg/mL] | EC50 [3] [µg/mL] | EC50 [4] [µg/mL] | IC50 [5] [µg/mL] | IC50 [6] [µg/mL] | Binder
2.55e+09 | 391 | 0.000532 | 1.36e+06 | 0.0258 | – | – | – | – | humanized 7A4D-hIgG4 (antibody, V domains shown, also called h7A4D) VH: QIQLVQSGSELKKPGASVKVSCKASGYTFTNFGMNWVRQAPGQGLKWMGWISGYTREPTYAADFKGRFVISLDTSVSTAYLQISSLKAEDTAVYYCARDVFDYWGQGTLVTVSS VL: DIVLTQSPASLAVSPGQRATITCRASESVDNYGYSFMNWFQQKPGQPPKLLIYRASNLESGVPARFSGSGSRTDFTLTINPVEADDTANYYCQQSNADPTFGQGTKLEIKR
2.93e+09 | 342 | 0.000498 | 1.46e+06 | – | 0.0621 | 0.0707 | 0.0169 | 0.886 | humanized 7A4-hIgG4 (antibody, IgG4 constant region with F234A and L235A, already in the entry; also called h7A4-IgG4; 7A4-huIgG4) heavy: not shown light: DIVLTQSPASLAVSPGQRATITCRASESVDNYGYSFMNWFQQKPGQPPKLLIYRASNLESGVPARFSGSGSRTDFTLTINPVEANDTANYYCQQSNADPTFGQGTKLEIKRTVAAPSVFIFPPSDEQLKSGTASVVCLLNNFYPREAKVQWKVDNALQSGNSQESVTEQDSKDSTYSLSSTLTLSKADYEKHKVYACEVTHQGLSSPVTKSFNRGEC
9.82e+09 | 102 | 0.000212 | 2.09e+06 | – | 0.0332 | 0.0331 | 0.00761 | 0.763 | humanized 7A4-hIgG1 (antibody, IgG1 constant region with D265A, already in the entry; also called h7A4-IgG1; hu-7A4-D265A-hIgG1) heavy: not shown light: DIVLTQSPASLAVSPGQRATITCRASESVDNYGYSFMNWFQQKPGQPPKLLIYRASNLESGVPARFSGSGSRTDFTLTINPVEANDTANYYCQQSNADPTFGQGTKLEIKRTVAAPSVFIFPPSDEQLKSGTASVVCLLNNFYPREAKVQWKVDNALQSGNSQESVTEQDSKDSTYSLSSTLTLSKADYEKHKVYACEVTHQGLSSPVTKSFNRGEC
